# Results reported in patent US20220064329A1 (Novo Nordisk, published 2022).
# Residue numbers refer to the chain shown, from its start. Names and notes keep the numbering of the source.
# B1: mAb0701 (antibody, V domains shown)
# VH: QIQLQQSGPELVKPGTSVKMACKASDYTFTDYYLHWVKQRPGQGLEWIGWIYPGSGNTKFNEKFKGKATLTVDTSSSTAYMHLSSLTSDDTAVYFCTRVLGRGAMDYWGQGTSVTVSS
# VL: DIVLTQSPPSLAVSLGQRAIISCKASQSVSFAGTSLMYWYQQKPGQQPKVLMYRASNLEAGVPIRFSGSGSGTDFTLNIHPVEEDDVATYYCQQSREYPYTFGGGTKLEIK
# B2: mAb0013 (antibody, V domains shown)
# VH: QIQLVQSGPELKKPGETVKISCKASGYTFTDYSIQWVKQAPGKGLKWMGWINTETGKPSYADDLKGRSAFSLETSGSTAYLQISNLKNEDMATYFCVRDDYYGREDYWGQGTTLTVSS
# VL: DIVMTQSPSSLTVTAGEKVTVSCKSSQSLLNSGDQKNYLTWYQQKPGQPPKLLIYWASTRESGVPDRFTGSGSGTDFTLTISSVQAEDLAVYYCQNDFSYPYTFGGGTKLEIK
# B3: mAb7250 (antibody, V domains shown)
# VH: EVQLVESGGGLVKPGGSLRLSCAASGFTFTSYSMSWVRQAPGKGLEWVSSISSRSSYICYADSVKGRFTISRDNAKNSLYLQMNSLRAEDTAVYYCAREGDTGSIGGDYMDVWGKGTTVTVSS
# VL: not shown
# B4: VH SEQ ID NO 650 / VL SEQ ID NO 438 (antibody, IgG4, V domains shown)
# VH: QVQLQESGPGLVKPSQTLSLTCTVSGYSISSDSAWSWIRQPPGKKLEWIGYIQYSGSTNYNPSLKSRVTISRDTSKNQFSLKLSSVTAADTAVYYCARSVNYYGNSFAVGPWGQGTLVTVSS
# VL: EIVLTQSPATLSLSPGERATLSCRASQGVSDYLAWYQQKPGQAPRLLIKYASQPATGIPARFSGSGSGTDFTLTISSLEPEDVAVYYCQNGHSFPLTFGQGTKLEIK
# notes: humanized 11F2; IgG4 S228P/kappa
# B5: VH SEQ ID NO 514 / VL SEQ ID NO 342 (antibody, IgG4, V domains shown)
# VH: B4 VH with K13E, Q16D, T23A, S30T, I70M, A89L, P111Y
# VL: B4 VL with V29I, A34H, A51T, T69R, V83F, Q100A, I106L
# notes: as for B4
# B6: VH SEQ ID NO 514 / VL SEQ ID NO 326 (antibody, IgG4, V domains shown)
# VH: B4 VH with K13E, Q16D, T23A, S30T, I70M, A89L, P111Y
# VL: B4 VL with V29I, A34H, Q42E, A51T, V83F, A84G, Q100A, I106L
# notes: as for B4
# B7: VH SEQ ID NO 650 / VL SEQ ID NO 486 (antibody, IgG4, V domains shown)
# VH: B4 VH
# VL: B4 VL with A34H, V83F, A84G
# notes: as for B4
# B8: VH SEQ ID NO 650 / VL SEQ ID NO 478 (antibody, IgG4, V domains shown)
# VH: B4 VH
# VL: B4 VL with A34H, V83F, N90Q
# notes: as for B4
# B9: VH SEQ ID NO 650 / VL SEQ ID NO 502 (antibody, IgG4, V domains shown)
# VH: B4 VH
# VL: B4 VL with A34H, A51T, V83F
# notes: as for B4
# B10: VH SEQ ID NO 650 / VL SEQ ID NO 446 (antibody, IgG4, V domains shown)
# VH: B4 VH
# VL: B4 VL with A51T, V83F
# notes: as for B4
# B11: VH SEQ ID NO 650 / VL SEQ ID NO 454 (antibody, IgG4, V domains shown)
# VH: B4 VH
# VL: B4 VL with A34H, Q42E, V83F
# notes: as for B4
# B12: VH SEQ ID NO 650 / VL SEQ ID NO 462 (antibody, IgG4, V domains shown)
# VH: B4 VH
# VL: B4 VL with A34H, V83F, Q100A
# notes: as for B4
# B13: VH SEQ ID NO 650 / VL SEQ ID NO 470 (antibody, IgG4, V domains shown)
# VH: B4 VH
# VL: B4 VL with A34H, V83F
# notes: as for B4
# B14: VH SEQ ID NO 650 / VL SEQ ID NO 494 (antibody, IgG4, V domains shown)
# VH: B4 VH
# VL: B4 VL with A34H
# notes: as for B4
# B15: mAb0109 (antibody, human IgG4 S228P, kappa, V domains shown)
# VH: DVQLQESGPGLVEPSQSLSLTCTVTGYSITSDSAWSWIRQFPGNKLEWMGYIQYSGSTNYNPSLKSRISVTRDTSKNQFFLRLSSVTAEDTATYYCTRSVNYYGNSFAVGYWGQGTSVTVSS
# VL: EIVLTQSPATLSLSPGERATLSCRASQGISDYLHWYQQKPGEAPRLLIKYTSQPATGIPARFSGSGSGTDFTLTISSLEPEDVGVYYCQSGHSFPLTFGAGTKLELKR
# notes: humanized 11F2 variant, first round
# B16: mAb0110 (antibody, human IgG4 S228P, kappa, V domains shown)
# VH: B4 VH with Q1D, K45G, A108W, G110D
# VL: DIVMTQSPATLSVTAGDRVSLSCRASQGISDYLHWYQQKSHESPRLLIKYTSQPVSGIPSRFSGSGSGSEFTLSINSVEPEDVGVYYCQNGHSFPLTFGAGTKLELKR
# notes: as for B15
# B17: mAb0112 (antibody, human IgG4 S228P, kappa, V domains shown)
# VH: B4 VH with Q1D, K13E, S30T, P41F, I49M, A89E, A108W, P111Y, L117S
# VL: B15 VL with S90N
# notes: as for B15
# B18: mAb0113 (antibody, human IgG4 S228P, kappa)
# heavy: not shown
# light: EIVLTQSPATLSLSPGERATLSCRASQGISDYLHWYQQKPGEAPRLLIKYTSQPATGIPARFSGSGSGTDFTLTISSLEPEDVGVYYCQNGHSFPLTFGAGTKLELKRTVAAPSVFIFPPSDEQLKSGTASVVCLLNNFYPREAKVQWKVDNALQSGNSQESVTEQDSKDSTYSLSSTLTLSKADYEKHKVYACEVTHQGLSSPVTKSFNRGEC
# notes: as for B15
# B19: mAb0118 (antibody, human IgG4 S228P, kappa, V domains shown)
# VH: B4 VH with Q1D, K13E, S30T, P41F, A89E, P111Y, L117S
# VL: B15 VL with S90N
# notes: as for B15
# B20: mAb0115 (antibody, human IgG4 S228P, kappa, V domains shown)
# VH: B4 VH with Q1D, K13E, S30T, I49M, A89E, P111Y, L117S
# VL: B15 VL with S90N
# notes: as for B15
# B21: mAb0117 (antibody, human IgG4 S228P, kappa, V domains shown)
# VH: B4 VH with Q1D, K13E, S30T, P41F, K45G, I49M, A89E, P111Y, L117S
# VL: B15 VL with S90N
# notes: as for B15
# B22: mAb0116 (antibody, human IgG4 S228P, kappa, V domains shown)
# VH: B4 VH with Q1D, K13E, S30T, P41F, I49M, A89E, G110D, P111Y, L117S
# VL: B15 VL with S90N
# notes: as for B15
# B23: mAb0119 (antibody, human IgG4 S228P, kappa)
# heavy: not shown
# light: B18 light
# notes: as for B15
# B24: mAb0114 (antibody, human IgG4 S228P, kappa, V domains shown)
# VH: B4 VH with Q1D, K13E, S30T, P41F, I49M, P111Y, L117S
# VL: B15 VL with S90N
# notes: as for B15
# B25: mAb0137(OA) (antibody, human IgG4 S228P, kappa)
# heavy: not shown
# light: B18 light
# chain: VESKYGPPCPPCPAPEFLGGPSVFLFPPKPKDTLMISRTPEVTCVVVDVSQEDPEVQFNWYVDGVEVHNAKTKPREEQFNSTYRVVSVLTVLHQDWLNGKEYKCKVSNKGLPSSIEKTISKAKGQPREPQVYTLPPSQEEMTKNQVSLTCLVKGFYPSDIAVEWESNGQPENNYKTTPPVLDSDGSFLLYSKLTVDKSRWQEGNVFSCSVMHEALHNHYTQKSLSLSLGK
# B26: mAb0139(OA) (antibody, human IgG4 S228P, kappa)
# heavy: not shown
# light: B18 light
# chain: B25 chain
# Biological target: T1, recombinant human activated Factor VII (FVIIa) (human, UniProt P08709 61-212; P08709 213-466, Gla domain: ten glutamate residues may be gamma-carboxylated)
# T1 sequence 1: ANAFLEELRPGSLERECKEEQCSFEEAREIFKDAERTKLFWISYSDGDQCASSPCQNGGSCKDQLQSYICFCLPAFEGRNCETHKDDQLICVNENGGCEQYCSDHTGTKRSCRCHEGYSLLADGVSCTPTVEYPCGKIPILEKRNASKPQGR
# T1 sequence 2: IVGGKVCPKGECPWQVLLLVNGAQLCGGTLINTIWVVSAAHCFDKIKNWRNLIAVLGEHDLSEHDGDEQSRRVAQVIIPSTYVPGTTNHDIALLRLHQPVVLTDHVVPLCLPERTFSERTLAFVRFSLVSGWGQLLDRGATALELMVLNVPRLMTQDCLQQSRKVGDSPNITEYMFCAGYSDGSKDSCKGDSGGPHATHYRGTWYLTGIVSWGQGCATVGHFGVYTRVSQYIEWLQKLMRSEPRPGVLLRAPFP
# Assay: cell-based or functional assay
Binder,AT inhibition (kinh %) [%],TGT activity (% FVIIa)
B1,26,88
B2,747,128
B3,23,91

# Biological target: T2, recombinant human activated Factor VII (FVIIa) (human, UniProt P08709 61-212; P08709 213-466, ten glutamate residues of the Gla domain may be gamma-carboxylated)
# T2 construct: chains tethered by a disulfide bond; also called Factor VIIa; rFVIIa
# T2 sequence 1: T1 sequence 1
# T2 sequence 2: T1 sequence 2
# Assay: BLI (Fortebio)
row,Binder,Kd [nM]
1,B4,28
2,B5,1.3
3,B6,0.75
4,B7,1.3
5,B8,3
6,B9,1.3
7,B10,39
8,B11,1.4
9,B12,1.6
10,B13,1.6
11,B14,1.6

# Biological target: T1, recombinant human activated Factor VII …
# Assay: Bio-Layer Interferometry (Fortebio), antibody on anti-human tips, FVIIa 25-200 nM
# Description: All steps were performed in running buffer (20 mM HEPES buffer (pH 7.4), 150 mM NaCl, 5 mM CaCl2, 0.03% Tween 20, 1 mg/ml IgG-free BSA) at […] Antibodies were captured on anti-human tips (AHC, Fortebio) for 3 min at a concentration of 10 ug/ml. This was followed by a 3 min incubation to establish a baseline. Following this, association was monitored for 3 min using four different concentrations of VIIa (25 nm, 50 nM, 100 nM, and 200 nM), followed by a 3 mi dissociation. Sensorgrams were analysed using Fortebio data analysis software.
row,Binder,Kd [nM]
1,B15,11
2,B16,42000
3,B17,13
4,B18,1.8
5,B19,1.7
6,B20,1.5
7,B21,1.4
8,B22,32
9,B23,1
10,B24,1.5

# Biological target: T2, recombinant human activated Factor VII …
# Assay: cell-based or functional assay
Binder,AT inhibition (kinh %) [%],TGT activity (%% FVIIa) [%]
B25,105,102
B26,110,100
